For the test, the target named is RSV prefusion F (preF, DS-Cav1) (Respiratory syncytial virus). Description: BLI, IgG on sensor, 100 nM antigen. (BLI is a label-free optical method that tracks binding on a fibre tip over time.)

Where a chain is given by its changes, count along the chain named.

B1: ADI-41253 (antibody, V domains shown)
VH: EVQLVQSGPGLVKPSETLSLTCTVSGDSISSSDYSYYWGWIRQPPGKGLEWIASLSYSGKTYSQSSLKSRVIISVDTSKKQFSLKLSSVTAADTAVYYCAVTRCYVCTSEGDSFDMWGQGTMVTVSS
VL: DIVLTQTPGTLSLSPGERATLSCRASQSISGNYLAWYQHKPGQAPRLLIYGASTRATGIPDRFSGSGSGTDFPLTISRLEPEDFAVYYCQQYATSPYTFGQGTKVDIK
As a reminder, the Kd is a measure of binding affinity in units of concentration. In turn, B1 had a Kd of 1.11 nM.

B2: ADI-41238 (antibody, V domains shown)
VH: EVQLLESGGGLVKPGGSLRLSCAASGFTFRDYYMSWIRQAPGKGLEWVSYISSSSSYTEYADSVKGRFTISRDNAKKSLYLQMNSLRTEDTAVYYCARVITQAGTGTTYYMDVWGKGTTVTVSS
VL: QSVLTQPPSVSGAPGQRVTISCTGSSSNIGTGYDVHWYQQLPGTAPKLLIYANNNRPSGVPDRFSGSKSGTSASLAITGLQAEDEADYYCQSYDSSLSLVFGGGTKLTVL
B2 yielded a Kd of 1.03 nM.

B3: ADI-41257 (antibody, V domains shown)
VH: QVQLVESGAEVKKPGSSVKVSCKASEGTFSSYGISWVRQAPGQGPEWMGEINPMFGTAKYAQKFQGRVTITVDESTSTADMELSSLTSEDTAVYYCAREFLGQCSETNCPTPSRHLDYWGQGTLVTVSS
VL: EIVMTQSPSSLSASVGDRVTITCRASRTISSYLNWYQQKPGKAPKLLIYATSNLQSGVPSRFSGSGSGADFTLTISSLQPEDFATYYCQQTYSTPGFGPGTKVDIK
Molecule B3 registered a Kd of 3.81 nM.

B4: ADI-41294 (antibody, V domains shown)
VH: EVQLLESGGGLVQPGGSLRLSCAASGFTFSAYEMNWVRQAPGKGLEWVSYISSSGSNKHYADSVKGRFTISRDNAKNSLHLHMNSLRAEDTALYYCTRPHQEEWELLPNDAFDLWGQGTMVTVSS
VL: QSALTQPPSASGSPGQSVTISCTGTSTDVGAYTYVSWYQQHPGKAPKLIIYEVYKRPSGVPNRFFGSKSGNTASLTVSGLQAEDEADYYCSSYGGSNNFGLFGGGTKLIVL
B4 came in with a Kd of 0.512 nM.

B5: ADI-41288 (antibody, V domains shown)
VH: EVQLVESGGGLVQPGGSLRLSCAASGFTFSSYAMSWVRQAAGKGLEWVSAISGSGDDTFYADSVKDRFIISRDSSKRKVYLQMNSLRVEDTAVYYCAKTDIMVTFGGVVVDAYYFDHWGQGTLVTVSS
VL: ETTLTQSPGTLSLSPGERATLSCRASQFVFRSYLAWYQQRPGQPPRLLIYGASSRATGIPDRFSGRGSGTEFTLTISRLEPEDFAMYYCQHYDSSPPGTFGGGTKVEIK
Turning to B5, the Kd is 8.99 nM.

B6: ADI-41237 (antibody, V domains shown)
VH: EVQLVESGGGLVKPGGSLRLSCAASGFTFSDYYMNWIRQAPGKGLEWVSDISPSSSYTNYADSVKGRFTISRDNAKNSLYLQMNSLRAEDTAMYYCARRGSCTGGVCSFDYWGQGTLVTVSS
VL: QPGLTQPPSVSGAPGQRVTISCTGSSSNIGAGYDVNWYQQLPGTAPKLLIYDNSNRPSGVPDRFSGSKSGTSASLAITGLQAEDEADFYCQSYDSSLSGFVFGTGTKVTVL
B6 returned a Kd of 0.794 nM.

B7: ADI-41245 (antibody, V domains shown)
VH: QVQLVESGGGLVKPGGSLRLSCAASGFSFSAYYMSWIRQAPGKGLEWISNISGGSSYANYADSVEGRFTISRDNAKNSLYLQMNSLRAEDTAVYYCAREFQTYYYMDVWGKGTTVTVSS
VL: B6 VL with G3V, D34E, N36H, D52G, S54N, F88Y, F100S, T104G, V108L
As for B7, the Kd was determined as 0.775 nM.

B8: ADI-41343 (antibody, V domains shown)
VH: EVQLVESGGGLVKPGGSLRLSCAASGFTFSSYYMNWVRQAPGKGLEWVSSISGGSSYISYADSVKGRFTISRDNAKNSLYLQMNSLRAEDTAVYYCARVDTPMVRGYYFDYWGQGTLVTVSS
VL: B6 VL with P2S, G3V, Q16R, N36H, Y51F, D52A, F88Y, F100S, T104G
B8 showed an equilibrium dissociation constant (Kd) of 0.721 nM.

B9: ADI-41251 (antibody, V domains shown)
VH: EVQLVESGGGLVKPGGSLRLSCAASGFTFSDYYMTWIRQAPGKGLEWVSNISGGSSYTNYADSVKGRFTISRDNAKNSVYLQMNSLRAEDTAVYYCARVGCSGGVCNFFLDYWGQGTLVTVSS
VL: B6 VL with P2S, G3V, N36H, S54T, F88Y, F100Y
B9 yielded a Kd of 0.593 nM.

B10: ADI-41296 (antibody, V domains shown)
VH: EVQLVESGVEVKKPGESLKISCRGSGYTFYNYWIAWVRQKPGKGLEYMGTIYLDDSETIYSPSFQGEVTISADKSINTAYLQWNSLKASDTANYYCARQMDFYFDVWGRGTLVTVSS
VL: SYELMQPPSVSVSPGQTARITCSGDPLPRESAYWYQQKPGQAPVVIIFNDIERPLGIPERFSGSRSGTTVTLTISGAQAEDEADYYCQSADSRKTFVFGTGTKLTVL
Consider B10, for which the Kd was 3.35 nM.

B11: ADI-41320 (antibody, V domains shown)
VH: B10 VH with E1Q, E6Q, S25F, T28S, F29A, E57D, K74R
VL: B10 VL with S1Q, Y2S, E3V, M5T, I46V, E59A, T100P
Regarding B11, the Kd is 3.2 nM.

B12: ADI-41310 (antibody, V domains shown)
VH: B10 VH with E1Q, E6Q, T28S, E57D
VL: B10 VL with M5T, I46V, E59G, T68A, V70A, S75N, T100A
B12 had a Kd of 3.32 nM.

B13: ADI-41254 (antibody, V domains shown)
VH: EVQLVESGGGLVQSGGSLRLSCAASGFTFSSYEMNWVRQAPGKGLEWVSYTTNNGRTIYYADSVKGRFTISRDNAKNSLFLQMNGLRAEDTAVYYCARGIQFSRVDYAMDVWGQGTTVTVSS
VL: SYELTQPPSVSGTPGQRITISCSGSSSNIASNTVNWYQHLPGTAPKLLIYSDNQRPSGVPDRFSGSKSGTSASLAISGLQSEDEADYYCAIWDDSLNASYVFGTGTKLTVL
For B13, the Kd turned out to be 0.776 nM.

B14: ADI-41317 (antibody, V domains shown)
VH: EVQLVESGGGLVQPGGSLRLSCEASRFKFSTFWMAWVRQAPGKGLEWVANIKQDGSETYYLDSVKGRFTISRDNAKNSLFLQMKSLRAEDTAVYYCAGLWWGDLENWFDPWGQGTLVTVSS
VL: QSVLTQPPSVSGAPGQRVTISCTGSSSNLGTGFDVHWYRQLPGTAPQLLIYGSTNRPSGVPDRFSGSKYGTSASLAITGLQAEDEADYYCQSYDSNLRAYVFGTVTKVTVL
The molecule B14 registered a Kd of 48.2 nM.

B15: ADI-41322 (antibody, V domains shown)
VH: QVQLVQSGAEVKKPGSSVRVSCKASGGSFSSYATSWVRQAPGQGLEWMGGIIPMYDAVNYAQKFQGRVTITADESTTTAYMELSSLRSEDTAVYYCARSSGYTGTNFFDYWGQGTLVTVSS
VL: DIQMTQSPSSVSASVGDRVTITCRASQDISSWLAWYQQKPGKAPKLLIYTASSLQSGVPSRFSGSGSGTDFTLTISRLQPEDFATYYCQQANSFPRVTFGGGTKVEIK
On to B15, for which the Kd came to 2.98 nM.

B16: ADI-41349 (antibody, V domains shown)
VH: EVQLLESGGGLVQPGRSLRLSCTGSGFTFGDYAMNWVRQAPGKGLEWVGLIRSKDYGGTTEFAASLKGRLTISRDDSKSIAYLQMHSLKTEDSAVYYCTRAHLTDYTDINGYQYYFDYWGQGSPVTVSS
VL: DIQMTQSPSSLSASVGDRVTITCQASQDISNFLNWYQQRPGKAPKLLIHDASNLETGVPSRFSGSGSRTEFTFTISSLQPEDIGTYYCQHYDNFPYTFGQGTKVEIK
B16: the Kd was 6.25 nM.

B17: ADI-41268 (antibody, V domains shown)
VH: EVQLVESGGGLVKPGGSLRLSCVASGFGFTSYSMNWVRQAPGKGLEWVSSISASSTYIHYADSVKGRFTISRDNARNSLYLQMISLRADDTAVYYCSRDGPTYGSGVHVWGQGTMVTVSS
VL: QSALIQPVSVSGSPGQSITISCTGTRSDVGGYNYVSWYQQHPGKAPKLMIYEVRNRPSGVSDRFSGSKSGNTASLTISGLQAEDEGDYYCSSYTSSDTLFYVFGSGTKLTVL
B17 had a Kd of 0.581 nM.

B18: ADI-41340 (antibody, V domains shown)
VH: QVQLVQSGAEVKTPGSSVKVSCKASGGTFRSYPITWVRQAPGQGLEWMGTVIPVFDTVNYAPKFQGRVSITADESTNTAYMELSSLRSDDSAVYYCARDLGWLRPMTTVTSPHFDYWGQGTLVTVSS
VL: QSVLTQPASVSGSPGQSITISCTGTSSDVGGYDFVSWYQQHPGKAPKLMISEVTDRPSGVSNRFSGSKSGNTASLTISGLQAEDEADYYCTSYTSSRTYVFGTGTKLTVL
Regarding B18, the Kd came out at 3.51 nM.

B19: ADI-41246 (antibody, V domains shown)
VH: EVQLLESGPGLVKPSETLSLTCIVSGGSISSYNWNWIRQPPGKGLEWIGYIYNSGSTNYNPSLKSRVTISVDTSKNQFSLKLSSVTAADTAVYYCARYFDYGSGGFDYWGQGTLVTVSS
VL: ETTLTQSPGTLSLSPGERATLSCRASQSVTSTYLAWYQQKPGQAPRLLIYGASSRATGIPDRFSGSGSGTDFTLTISRLEPEDFAVYYCQQFDSSLTFGGGTKVEIK
B19 returned a Kd of 3.08 nM.

B20: ADI-41266 (antibody, V domains shown)
VH: QVQLQQSGPGLVKPSQTLSLTCAISGDSVSSNSAAWNWIRQSPSRGLEWLGRTYYRSKWYNDYAVSVKSRITINPDTSKNQFSLQLNSVTPEDTAVYYCARDLPQVDYFDGASFYFFDFWGQGTLVTVSS
VL: QPVLTQPPSVSVAPGQTASITCGGNIIGNKGVHWYQQKPGRAPVLVVYDDSDRPSGIPERFSGSNSGNTATLTISRVEAADEADYYCQVWDTGSHPVVFGGGTKVTVL
On to B20, for which the Kd is 4.06 nM.

B21: ADI-41258 (antibody, V domains shown)
VH: QVQLVQSGGGLVQRGGSLRLSCAASGFSFRSYAMSWVRQAPGKGLEWVSSISDSGDNTFYADSVKGRFSISRDNSRDTLYLQMNSLRAEDTAVYYCARGGYCSGGNCFPFDYWGQGTLVTVSS
VL: SYELMQLPSVSVSPGQTARITCSGDALPKQYGYWYQQKPGQAPVLVIYKDSERPSGIPERFSGSSSGTTVTLTISGVQAEDEADYYCQSADSGGTYVMFGGGTKLTVL
Take B21: the Kd came to 0.968 nM.

These data come from patent US20260258115A1.
